Test results taken from the supplement of paper PMC7877785.
± gives the uncertainty stated by the source.

Assay: self-splicing fitness, log relative to wild type (ln ratio); higher = more splicing; Tetrahymena group I intron in knt gene, E. coli kanamycin selection, DiMSum; sequences stand for … in CUCUCU…GGAGGGAAAAGUUAUCAGGCAUGCACCUGGUAGCUAGUCUUUAAACCAAUAGAUUGCAUCGGUUUAAAAGGCAAGACCGUCAAAUUGCGGGAAAGGGGUCAACAGCCGUUCAGUACCAAGUCUCAGGGGAAACUUUGAGAUGGCCUUGCAAAGGGUAUGGUAAUAAGCUGACGGACAUGGUCCUAACCACGCAGCCAAGUCCUAAGUCAACAGAUCUUCUGUUGAUAUGGAUGCAGUUCACAGACUAAAUGUCGGUCGGGGAAGAUGUAUUCUUCUCAUAAGAUAUAGUCGGACCUCUCCUUAAUGGGAGCUAGCGGAUGAAGUGAUGCAACACUGGAGCCGCUGGGAACUAAUUUGUAUGCGAAAGUAUAUUGAUUAGUUUUGGAGUACUCGUGGUCG
Method in brief: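 Fitness was computed with DiMSum as the error-weighted combination of replicate fold changes, kanamycin versus none, each normalised to wild type. The library randomised all eight intron nucleotides of the P1ex region, with the intron placed in the knt kanamycin-resistance gene on pET-22b(+) in E. coli BL21(DE3). Six replicate transformations were grown overnight at 37°C or 30°C on LB agar with or without 25 μg/mL kanamycin, plus 100 μg/mL carbenicillin, 50 μM IPTG and 0.2% rhamnose. Pooled colonies were amplicon-sequenced on an Illumina HiSeq 2500.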

| Sequence | self-splicing fitness (ln) (30 °C) | self-splicing fitness (ln) (37 °C) |
| --- | --- | --- |
| UCGAAGCAAUAUUACGAUCU | -2.67 ± 0.21 | -2.44 ± 0.27 |
| UCGAAGCAAUAUUACGAUUG | -2.47 ± 0.27 | -1.73 ± 0.23 |
| UCGAAGCAAUAUUACGCCCU | -2.45 ± 0.2 | -1.7 ± 0.13 |
| UCGAAGCAAUAUUACGCCUG | -0.508 ± 0.14 | -0.022 ± 0.21 |
| UCGAAGCAAUAUUACGGAAG | -1.18 ± 0.2 | -2.11 ± 0.38 |
| UCGAAGCAAUAUUACGGCGA | -0.741 ± 0.12 | -0.539 ± 0.17 |
| UCGAAGCAAUAUUACGGGGA | -1.17 ± 0.13 | -0.644 ± 0.13 |
| UCGAAGCAAUAUUACGGGUG | -0.763 ± 0.083 | -0.756 ± 0.097 |
| UCGAAGCAAUAUUACGGUGC | -2.62 ± 0.25 |  |
| UCGAAGCAAUAUUACGUAAC | -2.1 ± 0.19 | -2.77 ± 0.38 |
| UCGAAGCAAUAUUACGUACU | -2.88 ± 0.1 | -1.67 ± 0.12 |
| UCGAAGCAAUAUUACGUGUU | -3.56 ± 0.2 | -2.47 ± 0.19 |
| UCGCAGCAAUAUUACGAAAG |  | -2.04 ± 0.36 |
| UCGCAGCAAUAUUACGAAAU | -3.62 ± 0.21 | -2.41 ± 0.24 |
| UCGCAGCAAUAUUACGACAA | -1.14 ± 0.19 | -1.48 ± 0.2 |
| UCGCAGCAAUAUUACGACAC | -1.67 ± 0.26 | -2.78 ± 0.41 |
| UCGCAGCAAUAUUACGACUU | -1.84 ± 0.2 | -0.512 ± 0.24 |
| UCGCAGCAAUAUUACGAGAC | -3.18 ± 0.35 | -1.6 ± 0.4 |
| UCGCAGCAAUAUUACGAGUC |  | -2.6 ± 0.38 |
| UCGCAGCAAUAUUACGAUAG | -2.26 ± 0.15 | -1.26 ± 0.17 |
| UCGCAGCAAUAUUACGCAAG | -3.01 ± 0.17 | -1.69 ± 0.25 |
| UCGCAGCAAUAUUACGCCCA | -0.827 ± 0.19 | 0.0722 ± 0.18 |
| UCGCAGCAAUAUUACGCGCG | -3.58 ± 0.29 | -2.08 ± 0.27 |
| UCGCAGCAAUAUUACGCUCC | -2.9 ± 0.46 |  |
| UCGCAGCAAUAUUACGCUCU | -3.55 ± 0.23 | -1.35 ± 0.13 |
| UCGCAGCAAUAUUACGGCAU | -1.99 ± 0.074 | -0.415 ± 0.077 |

| Sequence | self-splicing fitness (ln) (30 °C) | self-splicing fitness (ln) (37 °C) |
| --- | --- | --- |
| UCGCAGCAAUAUUACGGCUA | 0.198 ± 0.091 | 0.317 ± 0.098 |
| UCGCAGCAAUAUUACGGGGA | -1.31 ± 0.12 | -1.11 ± 0.1 |
| UCGCAGCAAUAUUACGUGAG | -0.263 ± 0.042 | -0.325 ± 0.063 |
| UCGCAGCAAUAUUACGUGCA | -2.17 ± 0.074 | -0.836 ± 0.071 |
| UCGCAGCAAUAUUACGUGCC | -2.66 ± 0.21 | -2.7 ± 0.36 |
| UCGCAGCAAUAUUACGUUGC |  | -4.15 ± 0.42 |
| UCGGAGCAAUAUUACGACGG | -3.56 ± 0.43 | -1.36 ± 0.29 |
| UCGGAGCAAUAUUACGAGGC | -2.74 ± 0.42 |  |
| UCGGAGCAAUAUUACGAGUU | -2.79 ± 0.33 |  |
| UCGGAGCAAUAUUACGCACG | -3.16 ± 0.34 | -0.819 ± 0.16 |
| UCGGAGCAAUAUUACGCAGC | -2.31 ± 0.5 |  |
| UCGGAGCAAUAUUACGCGAG | -3.29 ± 0.45 | -1.64 ± 0.27 |
| UCGGAGCAAUAUUACGCGGA | -2.32 ± 0.33 | 0.916 ± 0.15 |
| UCGGAGCAAUAUUACGGAAC | -3.36 ± 0.38 |  |
| UCGGAGCAAUAUUACGGAAG |  | -0.371 ± 0.41 |
| UCGGAGCAAUAUUACGGAGC |  | -1.64 ± 0.4 |
| UCGGAGCAAUAUUACGGUCG | -2.01 ± 0.15 | -0.73 ± 0.25 |
| UCGGAGCAAUAUUACGUCCA | -2.06 ± 0.48 | -0.639 ± 0.37 |
| UCGUAGCAAUAUUACGAACU | -3.21 ± 0.38 | -2.63 ± 0.33 |
| UCGUAGCAAUAUUACGACAA | -2.42 ± 0.29 | -1.5 ± 0.24 |
| UCGUAGCAAUAUUACGAGAC | -1.72 ± 0.37 | -3.18 ± 0.37 |
| UCGUAGCAAUAUUACGAGGU | -3.27 ± 0.21 | -2.06 ± 0.19 |
| UCGUAGCAAUAUUACGCAGG | -2.49 ± 0.18 | -2.17 ± 0.21 |
| UCGUAGCAAUAUUACGCAUC |  | -2.63 ± 0.36 |
| UCGUAGCAAUAUUACGCCAG | -1.49 ± 0.3 |  |
| UCGUAGCAAUAUUACGCCCG | -0.251 ± 0.19 | -0.113 ± 0.17 |

| Sequence | self-splicing fitness (ln) (30 °C) | self-splicing fitness (ln) (37 °C) |
| --- | --- | --- |
| UCGUAGCAAUAUUACGCGAG | -4.07 ± 0.23 | -2.43 ± 0.16 |
| UCGUAGCAAUAUUACGCGCU | -2.31 ± 0.19 | -1.78 ± 0.22 |
| UCGUAGCAAUAUUACGCGUG | -0.861 ± 0.1 | -0.648 ± 0.096 |
| UCGUAGCAAUAUUACGGACA | -0.671 ± 0.18 | -1.49 ± 0.26 |
| UCGUAGCAAUAUUACGGAUG |  | -1.89 ± 0.47 |
| UCGUAGCAAUAUUACGUAGU | -3.61 ± 0.25 | -1.99 ± 0.13 |
| UCGUAGCAAUAUUACGUAUA | -2.92 ± 0.31 | -1.01 ± 0.28 |
| UCGUAGCAAUAUUACGUAUU | -3.9 ± 0.28 | -0.594 ± 0.14 |
| UCGUAGCAAUAUUACGUCCA | -0.914 ± 0.16 | -0.15 ± 0.17 |
| UCGUAGCAAUAUUACGUCUA | -1.48 ± 0.1 | -0.978 ± 0.12 |
| UCGUAGCAAUAUUACGUGAG | -3.55 ± 0.19 | -1.35 ± 0.15 |
| UCGUAGCAAUAUUACGUGCA | -1.18 ± 0.094 | -1.14 ± 0.12 |
| UCGUAGCAAUAUUACGUGUA | -2.75 ± 0.12 | -0.347 ± 0.11 |
| UCGUAGCAAUAUUACGUUGA | -1.59 ± 0.16 | -0.942 ± 0.14 |
| UCGUAGCAAUAUUACGUUGC | -3.02 ± 0.47 |  |
| UCGUAGCAAUAUUACGUUUG | -3.19 ± 0.18 | -1.56 ± 0.2 |
| UCUAAGCAAUAUUACGAAAU | -3.53 ± 0.32 |  |
| UCUAAGCAAUAUUACGAAGU | -1.09 ± 0.11 | -1.07 ± 0.15 |
| UCUAAGCAAUAUUACGACGC | -0.443 ± 0.12 | -0.398 ± 0.21 |
| UCUAAGCAAUAUUACGAGUA | -2.23 ± 0.15 | -1.02 ± 0.14 |
| UCUAAGCAAUAUUACGAUUU | -2.92 ± 0.24 | -1.37 ± 0.16 |
| UCUAAGCAAUAUUACGCAGC | -1.83 ± 0.23 | -2.07 ± 0.31 |
| UCUAAGCAAUAUUACGCCCG | -0.879 ± 0.21 | 0.0184 ± 0.38 |
| UCUAAGCAAUAUUACGCGCA | -0.493 ± 0.11 | -0.561 ± 0.13 |
| UCUAAGCAAUAUUACGCUAA | -3.04 ± 0.19 | -1.84 ± 0.18 |
| UCUAAGCAAUAUUACGCUAC |  | -1.73 ± 0.45 |

| Sequence | self-splicing fitness (ln) (30 °C) | self-splicing fitness (ln) (37 °C) |
| --- | --- | --- |
| UCUAAGCAAUAUUACGCUUC | -3.47 ± 0.3 | -1.9 ± 0.31 |
| UCUAAGCAAUAUUACGGCAA | -1.94 ± 0.34 | -1.22 ± 0.21 |
| UCUAAGCAAUAUUACGGGAC | -3.56 ± 0.35 | -2.34 ± 0.4 |
| UCUAAGCAAUAUUACGGGAU | -2.77 ± 0.14 | -2.67 ± 0.18 |
| UCUAAGCAAUAUUACGGGUC | -2.67 ± 0.26 | -1.16 ± 0.37 |
| UCUAAGCAAUAUUACGGUCC |  | -0.662 ± 0.27 |
| UCUAAGCAAUAUUACGGUCG | -1.34 ± 0.095 | -0.375 ± 0.13 |
| UCUAAGCAAUAUUACGUAGG | -1.65 ± 0.093 | -1.24 ± 0.15 |
| UCUAAGCAAUAUUACGUCCG | -0.454 ± 0.15 | -0.55 ± 0.14 |
| UCUAAGCAAUAUUACGUCGC | -2.06 ± 0.23 | -1.22 ± 0.25 |
| UCUAAGCAAUAUUACGUCUU | -4.03 ± 0.27 | -4.18 ± 0.46 |
| UCUAAGCAAUAUUACGUGGG | -3.09 ± 0.19 | -1.92 ± 0.2 |
| UCUAAGCAAUAUUACGUUGC | -3.92 ± 0.34 | -2.81 ± 0.29 |
| UCUCAGCAAUAUUACGAACA | -1.41 ± 0.12 | -1.01 ± 0.13 |
| UCUCAGCAAUAUUACGAAGU | -2.33 ± 0.26 | -0.109 ± 0.16 |
| UCUCAGCAAUAUUACGAAUA | -2.57 ± 0.21 | -0.0366 ± 0.13 |
| UCUCAGCAAUAUUACGACGA | -0.256 ± 0.12 | -0.879 ± 0.13 |
| UCUCAGCAAUAUUACGACGU | -0.386 ± 0.07 | -0.541 ± 0.08 |
| UCUCAGCAAUAUUACGAGAA | -2.45 ± 0.29 | -0.803 ± 0.2 |
| UCUCAGCAAUAUUACGCAAA | -3.55 ± 0.4 | -1.59 ± 0.21 |
| UCUCAGCAAUAUUACGCAAC | -4.04 ± 0.39 |  |
| UCUCAGCAAUAUUACGCACA | -1.72 ± 0.19 | -0.264 ± 0.15 |
| UCUCAGCAAUAUUACGCAUU | -0.39 ± 0.11 | -1.55 ± 0.15 |
